Assay results published in the DeepSol protein solubility set.

Assay: soluble on expression in E. coli; label from the status in PepcDB or PDB records
For “MSLGEKTKLEQIKDNGKLVVGTSAEFPPFEFHKVVDGKDSIKGFDIMLAEEFAKELGVKVEIKDMSFDGLIGALNADQVDIVLAGMSPTPEREKSVDFSELYYLSRNAVIVKDADIDKVKTEDDLKKLRVGVQAGSIQEEYVVNTLKMTTTKSLKAIPDLITELKNGNIDAVVTNEAVSLINVKKYDGIKMANTEVGKDVTEGMAAAIKKSDNNKDFIELLNKKIKELQDGKKIEEFLNEASTEAASEGHHHHHH”, the “soluble on expression in E. coli” value was “soluble”.
In the case of “MSLGHELYLVGGSVRDALLGRLSPDLDFTTDARPERVQEIVRPWADAVWDTGIEFGTVGVGKSDHRMEITTFRADSYDRVSRHPEVRFGDCLEGDLVRRDFTTNAMAVRVTATGPGEFLDPLGGLAALRAKVLDTPAAPSGSFGDDPLRMLRAARFVSQLGFAVAPRVRAAIEEMAPQLARISAERVAAELDKLLVGEDPAAGIDLMVQSGMGAVVLPEIGGMRMAIDEGHHHHHH”, the “soluble on expression in E. coli” value is reported as “not soluble”.
For “MSLGIKVNRLKVEDQILRQFGGNLLLEKDGNRGFIAFIGRGLIDFTERIRILATVSRIKDILFIGTAGSLSNEILIGDLNIPKYAIPFENVSDFYADPTIAIPQADEKLLNEVYEYAEETGVKTHSTLHATLLFPYSETTEFLNYLLNIGVSTIDMEVSAFYKMSRFYGKRAVAVLRISDMPLIELHKQEELIKARREIAVNAVFRITLRFLKLEGHHHHHH”, the “soluble on expression in E. coli” value was “not soluble”.
With “MSLGIVIYGTRVIYPAEKKEVVVQLVNQGEQASLVQSWIDDGNTSLPPEKIQVPFMLTPPVARVAAESGQQIKIKKMPNSLPDNKESLFYLNVLDIPPNSQENAGKNVLKFAMQNRIKLIWRPSRIAAVTKDSFQRIGLFRSNKAVIMKNDTANWITVTDVKAGNTKINDQTIMLPPLSTQNINMKYASTSQYEVTIIDDNGNYISSKMNVKEGHHHHHH” the “soluble on expression in E. coli” value was “soluble”.
For “MSLGKLSILSKRKYTMKNQIQFSTFNFKDLPVRVILDPKGEFWFCGTDVCHILGYTNSRKALQDHCKQGGVTKRYTPTKSADQEMTFINEPNLYRLIIKSRKPEAEPFEAWVFEEVLPQIRKTGKYQLQPQQLALPEPEKKFSFEFTEYELQQLVWLWFAFMRGIVTFQHIEKAFKALGSNMSGDIYGQAYEYLSVYAQQTKSEGHHHHHH”, the “soluble on expression in E. coli” value was “not soluble”.
For “MSLGKRIFVFDTTLRDGEQVPGCQLNTEEKIIVAKALDELGVDVIEAGFPVSSPGDFNSVVEITKAVTRPTICALTRAKEADINIAGEALRFAKRSRIHTGIGSSDIHIEHKLRSTRENILEMAVAAVKQAKKVVHEVEFFCEDAGRADQAFLARMVEAVIEAGADVVNIPDTTGYMLPWQYGERIKYLMDNVSNIDKAILSAHCHNDLGLATANSLAALQNGARQVECTINGIGERAGNTALEEVVMAMECHKETLGLETGINHKKLVPISHLVSTLMRMQVQSNKAIVGRNAFAHSSGIHQDGFLKHRETYEIIDPAAVGADSSSIILTARSGRAALNHRLATIGYMLSKDQLDQAYTQFLDMADHLRKVEDENLHELMRGKVYAKEGHHHHHH”, the “soluble on expression in E. coli” value was “soluble”.
In the case of “MSLGNKSEAYEQYIQQIKEENGINNFFDRYPYLLKQINREVRLIEESYSLLFDRFLKDLSELRSCFNITEPLSNVEFSLGDSHSQKQTVVKIEFKGKSIYYKPKSYDSYNILLELISLLKSNNIPSFSLPESLIKADYCWQLGVDYINSNNDEVKRIYFKYGVLAAFSEIFSITDLHMENVIVSGGDLYLIDVETFFQRKLNVQTNNFEGITVDTYQRIYETSLSNGLFPVQFEKNSAPNISGISGKGGKRKKGKYELINKNRGDMKLVKTDYFQEDSYNIPTLNEKMVEPLDYANEVIAGFRECYTFLMTQRAKVKKILYGFPKLRTRAIFRNTSDYGKFLQASTNPKYLFSEKKRENLFSILYESKHIEQFIVDSEIKDLMNGDIPYFSMDPNGNVYNSLGTVIGNLGKTTSLFDNIATLNDERMKFTCELIGIVLKKPIKHWERKDGKSYYFPSISSKQSFNEEILRQREGHHHHHH”, the “soluble on expression in E. coli” value is reported as “not soluble”.
For “MSLGQFWHVTDLHLDPTYHITDDHTKVCASSKGANASNPGPFGDVLCDSPYQLILSAFDFIKNSGQEASFMIWTGDSPPHVPVPELSTDTVINVITNMTTTIQSLFPNLQVFPALGNHDYWPQDQLPVVTSKVYNAVANLWKPWLDEEAISTLRKGGFYSQKVTTNPNLRIISLNTNLYYGPNIMTLNKTDPANQFEWLESTLNNSQQNKEKVYIIAHVPVGYLPSSQNITAMREYYNEKLIDIFQKYSDVIAGQFYGHTHRDSIMVLSDKKGSPVNSLFVAPAVTPVKSVLEKQTNNPGIRLFQYDPRDYKLLDMLQYYLNLTEANLKGESIWKLEYILTQTYDIEDLQPESLYGLAKQFTILDSKQFIKYYNYFFVSYDSSVTCDKTCKAFQICAIMNLDNISYADCLKQLYIKHNYEGHHHHHH”, the “soluble on expression in E. coli” value was “not soluble”.
In the case of “MSLGQKFAVFIAYDDEPNTKRYSAEFQTQDEYVKGWQSALKKAHHTSGQKSVISCGCRGKGAKRLYVRSLPNSDTFILIKAANTGTEHDPSCVFFDLDARHTGLKGYASNVVRINNEGTMSIRLGIGMTEKDPPEKSEVPSLPQIQRPEGGQASMTLSGLLSLLWTEAGLNVWYPNMAGKRNDSLVRYRMLEAAKQIRSGRACIGDHLFIGVADSKSKVASEQVQLLSSAELSDKRLLLLSVLPRYDAEKHEKPLKFLPMRNFGGMPLTFFNSDGHWDSVKRRFPLEYAAWKNGGKVVVFALTSPVSVTSRGISARAHQIVLMLVSDNWIPLDSSYEAIVSRKLDAEHRHYVKPMRYDASASDVFPDFYLLDTRSDKPFPMEVFGMSTPAYLARKELKKAYYNQEYGAYGWWHWDATEKTEYQELPHFPEARREGHHHHHH”, the “soluble on expression in E. coli” value is reported as “soluble”.
With “MSLGQRTSRTPDQLENVGVDQKLGATIPKDLSFQNEQGEPVRLSQYFDGSTPVMLTLNYHRCPQLCRIQLQKFTKSLSGMSWTAGDKFKVLTVDISPYEGPKMARKAQERYATFLDRPEETVDGWHFLTGNQAAIETLTDSVGFRYQPLPEKEKQFAHPTTIIFLSGDGTITRYFTTLDPAPGDLRTALVEASDGEGHHHHHH” the “soluble on expression in E. coli” value was “soluble”.
With “MSLGSPKSVRIVVVGDKGTGKSSLIVAAATDSFPPNVPPVLPDYKLPIEFFPDGIPVTIVDTSSRPEDRDIVAEELKRADAVVLTYACDRPETLERLSEYWLPELRRLEVKIPIIVAGCKLDFRDDNNQVSLEQVMSPIMQQFREIETCIECSALKQLQAQEVFYYAQKTVLHPTGPLFDQEGHHHHHH” the “soluble on expression in E. coli” value was “soluble”.
With “MSLGYATAHRRVRHLSADQVITRPETLAVEEPLEIRVNGTPVTVTMRTPGSDFELVQGFLLAEGVVAHREDVLTVSYCGRRVEGNATGASTYNVLDVALAPGVKPPDVDVTRTFYTTSSCGVCGKASLQAVSQVSRFAPGGDPATVAADTLKAMPDQLRRAQKVFARTGGLHAAALFGVDGAMLAVREDIGRHNAVDKVIGWAFERDRIPLGASVLLVSGRASFELTQKALMAGIPVLAAVSAPSSLAVSLADASGITLVAFLRGDSMNVYTRADRITEGHHHHHH” the “soluble on expression in E. coli” value was “soluble”.
With “MSLGYQYDTLIYNVRIASMQDNKLPYGELPPHAIAIKDGKIAALLPCDDSLDDVFEQAKSVIDATTLIPQNEGSTPKPPWLLPGFIDCHTHLVYGGNRAEEFEMRLQGASYVDIAQRGGGIKGTVEKTRCSDENTLLHTAIKRAKRLCEEGVTTIEVKSGYGLDLDTEVRMLRVAKSLEQHLPVSIKTTYLGAHALPNEFADDSEGYIDFICNEALPHIASQNLADAVDVFCETIGFSTSQTERVFSCAQQHGLPIKAHVEQLSDSKGAVLAAKYGALSVDHIEYLADSDIPLLAQSGTVAVLLPGAFYYLSEVQKPPVDALRAHNVPMALATDFNPGSSPLASILTAINMGCVLFQLTPEEALRGATAHAASALGLHDRGVIEAGKLADLTLWDIETPAELAYCINGHRPIAVFKEGKHVEGHHHHHH” the “soluble on expression in E. coli” value was “soluble”.
For “MSLHDKQELSSKSNLNNQKGYLDNEGANSNYESKKQSILSELNQLLKQTTNSLKEAKNTTDNLNASNEANKVVEAVINAVNLISSAADQVKSATKNMHDLAQMAEIDLEKIKNSSDKAIFASNLAKEAYSLTKAAEQNMQKLYKEQQKISESESESDYSDSAEIKQAKEAVEIAWKATVEAKDKLIDVENTVKETLDKIKTETTNNTKLADIKEAAELVLQIAKNAKEIVQEVVALLNTEGHHHHHH”, the “soluble on expression in E. coli” value was “soluble”.
For “MSLHSLTRIKVLQRRCTVFHSQCESILLRYQDEDRGLQAEEEAILEQIAGLKLLLDTLRAENRQLSREEIYTLLRKQSIVRRQIKDLELQIIQIQEKRSELEKKREEFQKKSKYWLRKEGNYQRWIIRQKRFYIQREIQQEEAESEEIIEGHHHHHH”, the “soluble on expression in E. coli” value was “soluble”.
For “MSLHSVKASANRFTKTSQGRSWNTGNGSPDAICFAVDKPGIVVVGFAVYGGGGIHEYELEVLVDDSEHAGDSTHSHRWTSLELVKGTYTTDDSPSDIAEIRLDKVVPLKENVKYAVRLRNYGSRTANGDGGMTTVQCPDGVTFTFSTCSLSSNGTNQTRGQIPQILYYRSEFDGDLQSQLLSKANEEDKNCSRALSVVSTVVRAAKDLLHRALAVDADEGHHHHHH”, the “soluble on expression in E. coli” value was “soluble”.
With “MSLHYQPKQDLLQNRIILVTGASDGIGREAALTYARYGATVILLGRNEEKLRRVAQHIADEQHVQPQWFTLDLLTCTAEECRQVADRIAAHYPRLDGVLHNAGLLGEIGPMSEQDPQIWQDVMQVNVNATFMLTQALLPLLLKSDAGSLVFTSSSVGRQGRANWGAYATSKFATEGMMQVLADEYQNRSLRVNCINPGGTRTSMRASAFPTEDPQKLKTPADIMPLYLWLMGDDSRRKTGMTFDAQPGRKEGHHHHHH” the “soluble on expression in E. coli” value was “soluble”.
In the case of “MSLIGEILPLSHIVLDMEVGSKKRLFEEAGLLLERESSLSHADVFECLFAREKLGSTGLGQGVAIPHGRHAGVKQATGAFIRTREPVGFDAPDGKPVSLIFILLVPENATGEHLEVLSKLAGKFSQKSIRESLMTVSSAEEVRAILTEE”, the “soluble on expression in E. coli” value is reported as “soluble”.
With “MSLIGITQRLICNDSYHEKRECLALDWGKLFNKDLFKNFTPLPLSYEIDFSYYKHLIKAVILSGGNDLSFYSPNVLSKKRDLYEKQVIEICLEEKIPLLGICRGAQMIAHYFNSHISPCENHIGKHEVFFSKEKFISNSFHNFAIEKLGEDLVELCLAKDNTIEAFKHKYENIFGIMWHIERENGLNNIQILKEWFSLIKEGHHHHHH” the “soluble on expression in E. coli” value was “not soluble”.
In the case of “MSLIHSMTAFSRIQKQFDVGDFCWEIRSVNHRYLDVSFRLPESFRFLEAELRTLLRDKIHRGKLECHLKYKDTSCDNRSMLINIGTINALLDLSSKLSASHHLANDMTVSQVLSWPGVVEASLLDMEELSQIALELFQKSIDKLCEVRAGEGRSLKAYVEDRLQALRQEVMKSKSIVVSMSAKTKDKLLTRLHELQMDVPEARVEQEIALLLAKLDVSEELDRLETHIAEVSRTLNAEKVTGRRLDFLMQELNREANTLSSKSDSAELTLCAVEMKVLIEQMREQIQNFEEGHHHHHH”, the “soluble on expression in E. coli” value is reported as “soluble”.
In the case of “MSLIIYGYCRVSTKNQTDNNSLYQQQQEILNKYNDAKIIKETYTGTTTNRPKFEKIISSLKKGDLLVATKLDRLARSTSEGIQLIEGLFAKEVSVHILNIGLLENTSMGKFFLTTLLAVAELERNMIIERTQLGKEFAKKKKDFKDGRPKKYSNQQIQYALGLLNSKPYREVVKMTGISKSTLIRAKKSIEGHHHHHH”, the “soluble on expression in E. coli” value is reported as “soluble”.
For “MSLIPIRCHAVSGVALSTVQGETRLLMMKRVKGGFWCHVAGTVEAGETGWQTIVREFREETGIVVHELYNGQYLEQFYEHATNTVCLVPVFVVYCPPTQAVTLNHEHTEYRWSTLAEAKALAGFPGQQALYDHLWHYFVENSPSALMRVAMTEGHHHHHH”, the “soluble on expression in E. coli” value was “not soluble”.
